The target of assay [1] is human CCBE1 fused to a V5 tag (human) (UniProt Q6UXH8). The assay can be described thus: cell-based or functional assay.
Assay [2] addresses T1, uncleaved full-length VEGF-C (58 kDa precursor) (Homo sapiens (Human), UniProt P49767 32-419).
T1 construct: Made by transfected 293T cells from the mammalian VEGF-C construct of Joukov et al 1997; also called VEGF-C precursor; prepro-VEGF-C
T1 sequence: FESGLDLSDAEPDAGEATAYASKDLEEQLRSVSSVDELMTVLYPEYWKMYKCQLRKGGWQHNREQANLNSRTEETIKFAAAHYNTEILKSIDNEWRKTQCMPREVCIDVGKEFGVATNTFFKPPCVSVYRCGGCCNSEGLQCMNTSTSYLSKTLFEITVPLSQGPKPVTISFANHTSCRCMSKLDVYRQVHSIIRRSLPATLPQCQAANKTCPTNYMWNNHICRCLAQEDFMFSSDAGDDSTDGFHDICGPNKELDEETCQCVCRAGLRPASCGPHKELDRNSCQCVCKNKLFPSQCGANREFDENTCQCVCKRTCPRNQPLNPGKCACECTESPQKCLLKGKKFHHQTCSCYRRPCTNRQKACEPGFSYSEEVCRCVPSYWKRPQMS
The assay can be described thus: Strep-Tactin pull-down of mixed 293T conditioned media (CCBE1-strepIII and full-length VEGF-C, 10 min at RT), Western blot with anti-CCBE1 antibody and anti-VEGF-C antiserum. Here is the method: Co-immunoprecipitation analysis of strep-tagged CCBE1. […] Mixed media were incubated for 10 min at RT before being applied to the pull-down.
(In general: In western blotting, separated proteins are transferred to a membrane and probed.)

The molecule “VEGF-C C-terminal propeptide, hexahistidine-tagged (from UniProt P49767 228-419)” registered an inhibition of VEGF-C processing in assay [1] of 79%.
Still for that read-out and setting: as for “VEGF-C N-terminal propeptide, hexahistidine-tagged (from UniProt P49767 32-111)”, the figure is 43%.

B1: CCBE1-strepIII (human CCBE1 with StrepIII-tag) (other)
chain: YREEPEDGDREICSESKIATTKYPCLKSSGELTTCYRKKCCKGYKFVLGQCIPEDYDVCAEAPCEQQCTDNFGRVLCTCYPGYRYDRERHRKREKPYCLDIDECASSNGTLCAHICINTLGSYRCECREGYIREDDGKTCTRGDKYPNDTGHEKSENMVKAGTCCATCKEFYQMKQTVLQLKQKIALLPNNAADLGKYITGDKVLASNTYLPGPPGLPGGQGPPGSPGPKGSPGFPGMPGPPGQPGPRGSMGPMGPSPDLSHIKQGRRGPVGPPGAPGRDGSKGERGAPGPRGSPGPPGSFDFLLLMLADIRNDITELQEKVFGHRTHSSAEEFPLPQEFPSYPEAMDLGSGDDHPRRTETRDLRAPRDFYP
notes: Secreted into 293T conditioned medium; also called strep-tagged CCBE1; not shown: StrepIII-tag (Junttila et al 2005) inserted immediately after the CCBE1 CDS
With B1, the binding result in assay [2] was “no binding”.

The values above are taken from patent US20210196795A1 (LAURANTIS PHARMA, published 2021).
